Experimental data reported in the Immune Epitope Database (IEDB).

Legend:
[1] = target: HLA-A*30:01; assay: IEDB peptide-MHC binding, purified MHC/competitive/fluorescence; filed as Kd, often an IC50 or EC50 that approximates it; ≥ and ≤ were set here for values at or beyond the usual limits of such assays; conditions: source organism: Coxiella burnetii RSA 493
[2] = target: HLA-B*39:01; assay: as above; conditions: source organism: Coxiella burnetii RSA 493
[3] = target: HLA-B*15:01; assay: as above
[4] = target: HLA-B*08:01; assay: as above; conditions: source organism: Coxiella burnetii RSA 493
[5] = target: HLA-A*02:01; assay: as above; conditions: source organism: Coxiella burnetii RSA 493
[6] = target: HLA-A*01:01; assay: as above; conditions: source organism: Coxiella burnetii RSA 493
[7] = target: HLA-A*03:01; assay: IEDB peptide-MHC binding, purified MHC/direct/fluorescence; filed as Kd, often an IC50 or EC50 that approximates it; ≥ and ≤ were set here for values at or beyond the usual limits of such assays
[8] = target: HLA-B*48:01; assay: as above
[9] = target: HLA-A*69:01; assay: as above
[10] = target: HLA-B*27:05; assay: as above
[11] = target: HLA-B*15:17; assay: as above
[12] = target: HLA-B*40:01; assay: as above
[13] = target: HLA-A*26:02; assay: as above; conditions: source organism: Coxiella burnetii Q321
[14] = target: HLA-A*11:01; assay: as above
[15] = target: HLA-A*26:01; assay: as above
[16] = target: HLA-A*31:01; assay: as above
[17] = target: HLA-B*46:01; assay: as above
[18] = target: HLA-B*58:01; assay: as above
[19] = target: HLA-B*57:01; assay: as above
[20] = target: HLA-A*26:03; assay: as above; conditions: source organism: Coxiella burnetii Q321
[21] = target: HLA-B*15:42; assay: IEDB peptide-MHC binding, purified MHC/competitive/fluorescence; filed as Kd, often an IC50 or EC50 that approximates it; ≥ and ≤ were set here for values at or beyond the usual limits of such assays; conditions: source organism: Mycobacterium tuberculosis C
[22] = target: HLA-B*45:06; assay: as above; conditions: source organism: Mycobacterium tuberculosis C
[23] = target: HLA-B*83:01; assay: as above; conditions: source organism: Mycobacterium tuberculosis C
[24] = target: HLA-B*38:01; assay: IEDB peptide-MHC binding, purified MHC/direct/fluorescence; filed as Kd, often an IC50 or EC50 that approximates it; ≥ and ≤ were set here for values at or beyond the usual limits of such assays; conditions: source organism: Mycobacterium tuberculosis str. Haarlem
[25] = target: HLA-B*15:09; assay: as above; conditions: source organism: Mycobacterium tuberculosis str. Haarlem
[26] = target: HLA-B*08:01; assay: as above; conditions: source organism: Mycobacterium tuberculosis str. Haarlem
[27] = target: HLA-B*18:01; assay: as above; conditions: source organism: Mycobacterium tuberculosis
[28] = target: HLA-B*08:02; assay: as above; conditions: source organism: Mycobacterium tuberculosis str. Haarlem
[29] = target: HLA-A*02:01; assay: as above; conditions: source organism: Mycobacterium tuberculosis
[30] = target: HLA-B*51:01; assay: as above; conditions: source organism: Mycobacterium tuberculosis
[31] = target: HLA-A*01:01; assay: as above; conditions: source organism: Mycobacterium tuberculosis
[32] = source organism: Coxiella burnetii
[33] = source organism: Mycobacterium tuberculosis

EIYRTLYGL
Kd [1]: 2.47 µM | Kd [2]: 2.74 µM | Kd ([3]; source organism: Coxiella burnetii RSA 493): ≥ 20 µM | Kd [4]: 7 µM | Kd [5]: ≥ 20 µM | Kd [6]: 4.29 µM | Kd [7, 32]: ≥ 20 µM | Kd [8, 32]: ≥ 20 µM | Kd [9, 32]: 0.0014 µM | Kd [10, 32]: ≥ 20 µM | Kd [11, 32]: 0.384 µM | Kd [12, 32]: ≥ 20 µM | Kd [13]: 0.006 µM | Kd [14, 32]: ≥ 20 µM | Kd ([15]; source organism: Coxiella burnetii Q321): 0.067 µM | Kd [16, 32]: ≥ 20 µM | Kd [17, 32]: ≥ 20 µM | Kd [18, 32]: ≥ 20 µM | Kd [19, 32]: ≥ 20 µM | Kd [20]: 0.182 µM

RPAGARAAF
Kd [21]: ≥ 5 µM | Kd ([3]; source organism: Mycobacterium tuberculosis C): ≥ 20 µM | Kd [22]: ≥ 5 µM | Kd [23]: 0.245 µM | Kd [7, 33]: ≥ 20 µM | Kd [24]: ≥ 20 µM | Kd [8, 33]: ≥ 20 µM | Kd [25]: ≥ 20 µM | Kd [9, 33]: ≥ 20 µM | Kd [26]: 6.85 µM | Kd [27]: 11.8 µM | Kd [10, 33]: ≥ 20 µM | Kd [11, 33]: ≥ 20 µM | Kd [12, 33]: ≥ 20 µM | Kd [28]: ≥ 20 µM | Kd [14, 33]: ≥ 20 µM | Kd ([15]; source organism: Mycobacterium tuberculosis str. Haarlem): ≥ 20 µM | Kd [16, 33]: ≥ 20 µM | Kd [17, 33]: ≥ 20 µM | Kd [29]: ≥ 20 µM | Kd [18, 33]: ≥ 20 µM | Kd [19, 33]: ≥ 20 µM | Kd [30]: ≥ 20 µM | Kd [31]: ≥ 20 µM
